Target: the molecule itself
Assay: negative stain TEM

B1: IsiA protein of Synechocystis sp. PCC 6803 (natural protein)
chain: not shown
With B1 the “stoichiometry N” value was 18.

Source: paper PMC6699766 (Nature plants, 2019)
